Laboratory results reported in US5221606A, “Reagent and kit for enzyme assay comprising a substrate consonant with given enzyme to be assayed” (King's College London, priority 1987, dated 1993).

Substrate: CCC(=O)Oc1c(OC)cc(C=C2SC(=S)N(CC(=O)O)C2=O)cc1OC
Assay: assay of arylesterase in serum
Format: biochemical
Details: other: borate buffer pH 8, 37.0 °C
Description: The serum samples were diluted by a factor of 10 prior to the assay. The substrate solution and the diluted sera were then preincubated at 37° C. in a water bath. Aliquots (0.75 ml) of the substrate solution were then pipetted into small plastic tubes (2 ml capacity), and 0.05 ml samples of the sera were added to each of the substrate aliquots and shaken vigorously to ensure adequate mixing. A blank was run by substituting water (0.05 ml) for the serum. The reaction was stopped after 10 min by the addition of the stopping buffer (0.25 ml) [prepared by dissolving DABCO (22.4 g) in water (200 ml) and adjusting the pH to 10 by the addition of a little conc. hydrochloric acid. The resulting mixture was then made up to 1000 ml with acetone]. The absorption (A) was then measured at 529 nm and the enzyme activity calculated on the basis of an εmax =47,500. [formula] where t=time of incubation in hours

B1: arylesterase (Homo sapiens) (protein)
chain: MAKLIALTLLGMGLALFRNHQSSYQTRLNALREVQPVELPNCNLVKGIETGSEDLEILPNGLAFISSGLKYPGIKSFNPNSPGKILLMDLNEEDPTVLELGITGSKFDVSSFNPHGISTFTDEDNAMYLLVVNHPDAKSTVELFKFQEEEKSLLHLKTIRHKLLPNLNDIVAVGPEHFYGTNDHYFLDPYLQSWEMYLGLAWSYVVYYSPSEVRVVAEGFDFANGINISPDGKYVYIAELLAHKIHVYEKHANWTLTPLKSLDFNTLVDNISVDPETGDLWVGCHPNGMKIFFYDSENPPASEVLRIQNILTEEPKVTQVYAENGTVLQGSTVASVYKGKLLIGTVFHKALYCEL
notes: The serum samples were diluted by a factor of 10 prior to the assay; from tissue; host or cells: serum
- Km: 25 µM
